Source: the supplement of paper PMC7877785
± gives the uncertainty stated by the source.

Test: self-splicing fitness, log relative to wild type (ln ratio); higher = more splicing; Tetrahymena group I intron in knt gene, E. coli kanamycin selection, DiMSum; sequences stand for … in CUCUCU…GGAGGGAAAAGUUAUCAGGCAUGCACCUGGUAGCUAGUCUUUAAACCAAUAGAUUGCAUCGGUUUAAAAGGCAAGACCGUCAAAUUGCGGGAAAGGGGUCAACAGCCGUUCAGUACCAAGUCUCAGGGGAAACUUUGAGAUGGCCUUGCAAAGGGUAUGGUAAUAAGCUGACGGACAUGGUCCUAACCACGCAGCCAAGUCCUAAGUCAACAGAUCUUCUGUUGAUAUGGAUGCAGUUCACAGACUAAAUGUCGGUCGGGGAAGAUGUAUUCUUCUCAUAAGAUAUAGUCGGACCUCUCCUUAAUGGGAGCUAGCGGAUGAAGUGAUGCAACACUGGAGCCGCUGGGAACUAAUUUGUAUGCGAAAGUAUAUUGAUUAGUUUUGGAGUACUCGUGGUCG
In short: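 A randomised library covering all eight P1ex-region intron nucleotides was built with the intron in the knt kanamycin-resistance gene on pET-22b(+) and held in E. coli BL21(DE3). Cells were grown overnight at 37°C or 30°C on LB agar, with or without 25 μg/mL kanamycin, plus 100 μg/mL carbenicillin, 50 μM IPTG and 0.2% rhamnose, and pooled colonies were amplicon-sequenced on an Illumina HiSeq 2500. DiMSum fitness is the error-weighted combination of wild-type-normalised replicate fold changes, kanamycin versus none.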

Sequence	self-splicing fitness (ln) (30 °C)	self-splicing fitness (ln) (37 °C)
AGCCAGCAAUAUUACGGUAA	-1.23 ± 0.069	-0.323 ± 0.074
AGCCAGCAAUAUUACGGUUC	-4.47 ± 0.19	-3.66 ± 0.27
AGCCAGCAAUAUUACGGUUU	-3.43 ± 0.2	-2.04 ± 0.18
AGCCAGCAAUAUUACGUACC	-2.95 ± 0.25	-0.263 ± 0.13
AGCCAGCAAUAUUACGUACG	-3.04 ± 0.17	-2.65 ± 0.17
AGCCAGCAAUAUUACGUCUG	-4.62 ± 0.25	-1.94 ± 0.17
AGCCAGCAAUAUUACGUGAG	-2.79 ± 0.1	-0.902 ± 0.11
AGCCAGCAAUAUUACGUUUG	-3.47 ± 0.13	-3.22 ± 0.23
AGCGAGCAAUAUUACGAAAU	-2.79 ± 0.23	-2.39 ± 0.42
AGCGAGCAAUAUUACGACAC	-1.34 ± 0.34	–
AGCGAGCAAUAUUACGAGAU	-4.2 ± 0.3	-2.15 ± 0.19
AGCGAGCAAUAUUACGAUGA	-2.57 ± 0.44	–
AGCGAGCAAUAUUACGCCAU	-4.12 ± 0.46	-1.58 ± 0.18
AGCGAGCAAUAUUACGCCCU	-1.34 ± 0.35	-0.0906 ± 0.22
AGCGAGCAAUAUUACGCCUA	-1.67 ± 0.18	-1.89 ± 0.2
AGCGAGCAAUAUUACGCCUC	-1.82 ± 0.3	–
AGCGAGCAAUAUUACGCGCU	-1.6 ± 0.23	–
AGCGAGCAAUAUUACGCGUU	-3.19 ± 0.27	-2.79 ± 0.32
AGCGAGCAAUAUUACGCUUG	-3.61 ± 0.15	-1.69 ± 0.15
AGCGAGCAAUAUUACGGAGA	-2.52 ± 0.26	-2.14 ± 0.3
AGCGAGCAAUAUUACGGGCA	-0.63 ± 0.061	-0.562 ± 0.075
AGCGAGCAAUAUUACGGGGU	-3.54 ± 0.22	-1.59 ± 0.19
AGCGAGCAAUAUUACGGUCU	-1.42 ± 0.1	-0.715 ± 0.15
AGCGAGCAAUAUUACGGUUC	-2.18 ± 0.24	-2.32 ± 0.3
AGCGAGCAAUAUUACGUACC	-0.987 ± 0.18	-0.589 ± 0.19

Sequence	self-splicing fitness (ln) (30 °C)	self-splicing fitness (ln) (37 °C)
AGCGAGCAAUAUUACGUCAU	-3.13 ± 0.21	-1.88 ± 0.2
AGCGAGCAAUAUUACGUCGG	-3.45 ± 0.32	-2.08 ± 0.25
AGCGAGCAAUAUUACGUGCA	-1.78 ± 0.14	-1.21 ± 0.14
AGCUAGCAAUAUUACGAACC	-0.602 ± 0.14	-0.082 ± 0.14
AGCUAGCAAUAUUACGAACG	-0.938 ± 0.19	-1.61 ± 0.18
AGCUAGCAAUAUUACGAAUC	–	-1.56 ± 0.28
AGCUAGCAAUAUUACGAGGU	-2.73 ± 0.14	-1.31 ± 0.13
AGCUAGCAAUAUUACGAUGU	-1.79 ± 0.096	-0.235 ± 0.13
AGCUAGCAAUAUUACGCCAG	-3.78 ± 0.36	-2.27 ± 0.35
AGCUAGCAAUAUUACGCCCU	-0.747 ± 0.13	0.627 ± 0.15
AGCUAGCAAUAUUACGCCGA	-1.4 ± 0.4	–
AGCUAGCAAUAUUACGCGCA	-0.216 ± 0.095	0.0846 ± 0.13
AGCUAGCAAUAUUACGCGGC	-3.24 ± 0.32	-1.99 ± 0.38
AGCUAGCAAUAUUACGCUAA	-1.97 ± 0.18	-1.21 ± 0.12
AGCUAGCAAUAUUACGCUAG	-3.02 ± 0.21	-2.23 ± 0.22
AGCUAGCAAUAUUACGCUUC	-3.25 ± 0.3	-2.65 ± 0.28
AGCUAGCAAUAUUACGGAGU	-2.94 ± 0.22	-2.18 ± 0.24
AGCUAGCAAUAUUACGGAUU	-1.3 ± 0.097	-1 ± 0.13
AGCUAGCAAUAUUACGGGGC	-3.25 ± 0.19	-2.5 ± 0.21
AGCUAGCAAUAUUACGGGUC	-2.59 ± 0.17	-1.7 ± 0.15
AGCUAGCAAUAUUACGGGUG	-1.04 ± 0.068	-0.416 ± 0.087
AGCUAGCAAUAUUACGUACG	-1.85 ± 0.07	-1.21 ± 0.081
AGCUAGCAAUAUUACGUCAC	–	-2.69 ± 0.29
AGCUAGCAAUAUUACGUCGU	-1.38 ± 0.1	-1.4 ± 0.14
AGCUAGCAAUAUUACGUGAC	-3.94 ± 0.18	-1.26 ± 0.13

Sequence	self-splicing fitness (ln) (30 °C)	self-splicing fitness (ln) (37 °C)
AGCUAGCAAUAUUACGUGUC	-3.35 ± 0.18	-1.63 ± 0.14
AGCUAGCAAUAUUACGUUUU	-2.36 ± 0.14	-2.18 ± 0.16
AGGAAGCAAUAUUACGAACC	-0.283 ± 0.29	-0.131 ± 0.3
AGGAAGCAAUAUUACGACAC	-1.94 ± 0.12	-1.74 ± 0.12
AGGAAGCAAUAUUACGACUU	0.00163 ± 0.064	-0.239 ± 0.084
AGGAAGCAAUAUUACGAGAU	-4.23 ± 0.26	-1.1 ± 0.13
AGGAAGCAAUAUUACGAGCA	-1.91 ± 0.17	-1.7 ± 0.17
AGGAAGCAAUAUUACGAUAA	-1.9 ± 0.21	-1.33 ± 0.29
AGGAAGCAAUAUUACGAUGA	-0.649 ± 0.13	-0.773 ± 0.17
AGGAAGCAAUAUUACGCGAG	-1.55 ± 0.13	-1.31 ± 0.15
AGGAAGCAAUAUUACGCGCG	-0.598 ± 0.21	-0.0648 ± 0.26
AGGAAGCAAUAUUACGCGGA	-2.32 ± 0.22	-1.29 ± 0.17
AGGAAGCAAUAUUACGCGUC	-3.99 ± 0.33	-2.24 ± 0.24
AGGAAGCAAUAUUACGCUGC	-3.38 ± 0.43	–
AGGAAGCAAUAUUACGGCGA	-0.209 ± 0.097	-0.301 ± 0.13
AGGAAGCAAUAUUACGGCUG	-0.459 ± 0.13	-0.0568 ± 0.15
AGGAAGCAAUAUUACGGGUC	-3 ± 0.32	-2.31 ± 0.29
AGGAAGCAAUAUUACGGUCA	-0.983 ± 0.086	0.202 ± 0.091
AGGAAGCAAUAUUACGGUCG	-0.601 ± 0.1	0.213 ± 0.14
AGGAAGCAAUAUUACGGUGA	-2.15 ± 0.09	-1.23 ± 0.088
AGGAAGCAAUAUUACGGUUU	-2.13 ± 0.085	-0.557 ± 0.1
AGGAAGCAAUAUUACGUACA	-1.08 ± 0.065	-0.404 ± 0.088
AGGAAGCAAUAUUACGUACU	-1.76 ± 0.12	-0.989 ± 0.19
AGGAAGCAAUAUUACGUAGC	–	-1.62 ± 0.28
AGGAAGCAAUAUUACGUGAA	-2.53 ± 0.35	-1.97 ± 0.24

Sequence	self-splicing fitness (ln) (30 °C)	self-splicing fitness (ln) (37 °C)
AGGAAGCAAUAUUACGUUAA	-3.22 ± 0.18	-1.72 ± 0.12
AGGAAGCAAUAUUACGUUUC	-3.65 ± 0.33	-1.86 ± 0.36
AGGCAGCAAUAUUACGAAGA	-1.96 ± 0.29	-1.12 ± 0.18
AGGCAGCAAUAUUACGAAUG	-1.83 ± 0.17	-1.73 ± 0.2
AGGCAGCAAUAUUACGACCC	-0.357 ± 0.31	-0.702 ± 0.5
AGGCAGCAAUAUUACGACCG	0.153 ± 0.071	0.0303 ± 0.085
AGGCAGCAAUAUUACGACGU	-0.0258 ± 0.11	0.539 ± 0.087
AGGCAGCAAUAUUACGAGGC	-3.43 ± 0.29	-1.67 ± 0.22
AGGCAGCAAUAUUACGAGUG	-3.63 ± 0.28	-1.96 ± 0.18
AGGCAGCAAUAUUACGAUAA	-1.82 ± 0.11	-2.3 ± 0.16
AGGCAGCAAUAUUACGAUUG	-3.13 ± 0.17	-2.4 ± 0.22
AGGCAGCAAUAUUACGCUUG	-2.81 ± 0.17	-2.12 ± 0.23
AGGCAGCAAUAUUACGGCAG	-1.29 ± 0.1	-0.578 ± 0.12
AGGCAGCAAUAUUACGGGCC	-2.17 ± 0.29	-1.52 ± 0.26
AGGCAGCAAUAUUACGGGGA	–	-3.03 ± 0.23
AGGCAGCAAUAUUACGGUAC	-3.68 ± 0.21	-2.65 ± 0.2
AGGCAGCAAUAUUACGGUGU	-2.38 ± 0.13	-1.73 ± 0.15
AGGCAGCAAUAUUACGUAAA	-2 ± 0.085	-0.673 ± 0.099
AGGCAGCAAUAUUACGUAUC	-2.26 ± 0.16	-0.296 ± 0.12
AGGCAGCAAUAUUACGUCUU	-4.07 ± 0.25	-2.58 ± 0.19
AGGCAGCAAUAUUACGUGUG	-2.98 ± 0.11	-1.44 ± 0.096
AGGCAGCAAUAUUACGUUAU	-1.78 ± 0.08	-1.78 ± 0.11
AGGCAGCAAUAUUACGUUCA	-0.538 ± 0.08	-0.117 ± 0.13
